One experiment deals with CD22 (human) (UniProt P20273). Kind of experiment: cell-based or functional assay.
The target in the next experiment is mesothelin (UniProt Q13421). Kind of experiment: cell-based or functional assay.
Experiment [1] addresses T1, CD22 (human, UniProt P20273 20-847).
T1 construct: whole, on cells; also called native CD22(αβ) on Daudi cells; CD22 antigen
T1 sequence (looked up): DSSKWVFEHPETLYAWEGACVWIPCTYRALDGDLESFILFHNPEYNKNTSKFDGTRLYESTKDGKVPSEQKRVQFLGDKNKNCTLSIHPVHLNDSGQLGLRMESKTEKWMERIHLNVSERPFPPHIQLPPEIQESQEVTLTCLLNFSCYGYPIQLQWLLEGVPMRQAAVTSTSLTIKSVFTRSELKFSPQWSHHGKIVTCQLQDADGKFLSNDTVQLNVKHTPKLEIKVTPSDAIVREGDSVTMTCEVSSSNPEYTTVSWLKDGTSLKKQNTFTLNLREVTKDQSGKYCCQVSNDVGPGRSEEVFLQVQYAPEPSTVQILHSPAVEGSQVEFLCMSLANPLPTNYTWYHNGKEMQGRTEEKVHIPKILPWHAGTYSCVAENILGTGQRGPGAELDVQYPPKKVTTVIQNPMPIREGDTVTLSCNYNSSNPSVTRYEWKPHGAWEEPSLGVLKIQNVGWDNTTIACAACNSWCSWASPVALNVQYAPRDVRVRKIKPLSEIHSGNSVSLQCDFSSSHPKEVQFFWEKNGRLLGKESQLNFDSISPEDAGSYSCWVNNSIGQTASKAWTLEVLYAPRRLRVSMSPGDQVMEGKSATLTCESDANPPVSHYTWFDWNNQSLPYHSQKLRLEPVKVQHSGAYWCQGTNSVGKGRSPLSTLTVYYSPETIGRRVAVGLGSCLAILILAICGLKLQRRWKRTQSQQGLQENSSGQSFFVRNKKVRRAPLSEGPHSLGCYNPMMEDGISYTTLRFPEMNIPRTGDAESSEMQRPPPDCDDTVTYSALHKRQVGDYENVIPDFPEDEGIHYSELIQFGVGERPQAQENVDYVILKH
Kind of experiment: monoclonal phage FACS on Daudi cells.

Experiment [2] concerns the target T1, CD22. Kind of experiment: monoclonal phage FACS on Daudi cells; HA22 is the reference that the mutants exceed.

The values below come from patent US20070189962A1 (GOV OF US AS REPRESENTED BY THE SEC OF HEALTH, published 2007).

Positions count from the first letter of the chain named.

Chain of mesothelin (Q13421 other isoform, or with tags, fused parts or gaps limits assumed): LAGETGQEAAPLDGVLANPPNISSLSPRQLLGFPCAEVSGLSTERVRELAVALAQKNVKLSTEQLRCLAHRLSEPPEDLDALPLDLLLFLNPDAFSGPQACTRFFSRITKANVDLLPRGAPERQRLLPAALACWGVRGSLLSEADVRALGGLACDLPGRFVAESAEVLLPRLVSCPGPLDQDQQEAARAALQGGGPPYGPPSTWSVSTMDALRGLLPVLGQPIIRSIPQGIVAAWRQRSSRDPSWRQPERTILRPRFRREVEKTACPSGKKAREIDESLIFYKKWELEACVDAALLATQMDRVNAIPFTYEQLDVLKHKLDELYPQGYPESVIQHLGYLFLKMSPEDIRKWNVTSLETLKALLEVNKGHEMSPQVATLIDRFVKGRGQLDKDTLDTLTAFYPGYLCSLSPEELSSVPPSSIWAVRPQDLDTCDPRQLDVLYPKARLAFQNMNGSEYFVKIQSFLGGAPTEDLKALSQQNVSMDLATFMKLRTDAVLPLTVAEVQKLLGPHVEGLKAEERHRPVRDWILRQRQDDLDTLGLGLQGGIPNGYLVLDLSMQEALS

With HA22 (R490A), in the experiment with CD22 (human), the Cytotoxicity activity (IC50), protein synthesis inhibition, Daudi was found to be 0.2 ng/mL and the Cytotoxicity activity (IC50), protein synthesis inhibition, Raji worked out at 0.3 ng/mL.

With HA22 RFB4 (scFv)-PE38 immunotoxin, in the experiment with CD22 (human), the Cytotoxic Activity (IC50), Daudi (30 min incubation) was 5.6 ng/mL; the Cytotoxic Activity (IC50), Daudi, 16 hr, protein synthesis was 0.52 ng/mL; the Cytotoxic Activity (IC50), Namalwa was 1.2 ng/mL; the Cytotoxic Activity (IC50), Ramos turned out to be 4.9 ng/mL. For the molecule RFB4 (dsFv)-PE38, in the experiment with CD22 (human), the Cytotoxicity activity (IC50), protein synthesis inhibition, Daudi was 2.8 ng/mL and the Cytotoxicity activity (IC50), protein synthesis inhibition, Raji is 2.5 ng/mL. For the molecule SS1P, in the experiment with mesothelin, the IC50, inhibition of protein synthesis, A431/K5 was found to be 0.7 ng/mL and the IC50, inhibition of protein synthesis, A1847 is 4 ng/mL. The corresponding values for SS1P (R490A) are 0.45 ng/mL and 1.5 ng/mL.

B1: B5 (scFv displayed on phage) (scFv, V domains shown)
VH: EVQLVESGGGLVKPGGSLKLSCAASGFAFSIYDMSWVRQTPEKRLEWVAYISSGGGTTYYPDTVKGRFTISRDNAKNTLYLQMSSLKSEDTAMYYCARHSGYGTHWGVLFAYWGQGTLVTVSA
VL: DIQMTQTTSSLSASLGDRVTISCRASQDIHGYLNWYQQKPDGTVKLLIYYTSILHSGVPSRFSGSGSGTDYSLTISNLEQEDFATYFCQQGNTLPWTFGGGTKLEIK
notes: also called mutant B5; L-CDR1 HG mutant of HA22
Regarding B1, the binding result with CD22 [1] is on record as “binds”.

B2: E6 (scFv displayed on phage) (scFv, V domains shown)
VH: B1 VH
VL: B1 VL with H30G, G31R
notes: also called L-CDR1 GR mutant of HA22
Take B2: the binding result with CD22 [1] was “binds”.

B3: B8 (scFv displayed on phage) (scFv, V domains shown)
VH: B1 VH
VL: B1 VL with H30R
notes: also called L-CDR1 RG mutant of HA22
Regarding B3, the binding result with CD22 [1] is listed as “binds”.

B4: HA22 (scFv displayed on phage) (scFv, V domains shown)
VH: B1 VH
VL: B1 VL with H30S, G31N
notes: also called starting molecule; RFB4 with SSY of H-CDR3 mutated to THW
As to B4, the binding result with CD22 [2] was “binds”.

B5: D8 (scFv displayed on phage) (scFv, V domains shown)
VH: B1 VH
VL: B1 VL with H30A, G31R
notes: also called L-CDR1 AR mutant of HA22
Take B5: the binding result in the experiment with CD22 [1] was “binds”.
